Measurements from US20240287172A1 (SCIRHOM, published 2024).

T1: hiR2-FL-H620R-T7 (human, UniProt Q6PJF5 1-856)
T1 sequence: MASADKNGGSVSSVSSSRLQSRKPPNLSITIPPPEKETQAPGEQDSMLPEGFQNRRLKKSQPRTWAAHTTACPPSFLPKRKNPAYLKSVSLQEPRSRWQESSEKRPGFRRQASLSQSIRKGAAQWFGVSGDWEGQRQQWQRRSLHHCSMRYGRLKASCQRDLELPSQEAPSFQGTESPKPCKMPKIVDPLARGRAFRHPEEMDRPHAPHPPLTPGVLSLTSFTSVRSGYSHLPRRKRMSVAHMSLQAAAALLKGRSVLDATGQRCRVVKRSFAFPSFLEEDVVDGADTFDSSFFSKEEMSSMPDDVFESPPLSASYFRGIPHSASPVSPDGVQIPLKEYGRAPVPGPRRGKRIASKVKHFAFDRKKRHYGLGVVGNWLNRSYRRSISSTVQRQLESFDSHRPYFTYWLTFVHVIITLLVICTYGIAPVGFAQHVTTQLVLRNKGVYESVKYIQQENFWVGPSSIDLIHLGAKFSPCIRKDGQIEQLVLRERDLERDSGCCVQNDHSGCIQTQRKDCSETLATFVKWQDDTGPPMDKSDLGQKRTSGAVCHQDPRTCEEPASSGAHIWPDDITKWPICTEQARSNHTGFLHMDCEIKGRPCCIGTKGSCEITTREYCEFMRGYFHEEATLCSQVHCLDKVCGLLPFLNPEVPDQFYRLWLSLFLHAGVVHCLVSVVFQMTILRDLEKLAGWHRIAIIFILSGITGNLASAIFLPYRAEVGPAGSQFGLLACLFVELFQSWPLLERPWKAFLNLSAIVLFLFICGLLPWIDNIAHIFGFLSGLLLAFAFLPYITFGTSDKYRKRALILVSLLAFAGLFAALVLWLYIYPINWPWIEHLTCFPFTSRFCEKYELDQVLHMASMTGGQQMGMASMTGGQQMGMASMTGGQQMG


target: T1, hiR2-FL-H620R-T7; assay: FACS, MEF-DKO cells, 3 µg/ml
Description: In brief, immortalized MEF-DKO hiR2-FL-G563D-T7, MEF-DKO hiR2-FL-A564P-T7, MEF-DKO hiR2-FL-1566E-T7, MEF-DKO hiR2-FL-D569E-T7, MEF-DKO hiR2-FL-E579K-T7, MEF-DKO hiR2-FL-Q580N-T7, MEF-DKO hiR2-FL-A581S-T7, MEF-DKO hiR2-FL-R582A-T7, MEF-DKO hiR2-FL-S583G-T7, MEF-DKO hiR2-FL-G587N-T7, MEF-DKO hiR2-FL-F588H-T7, MEF-DKO hiR2-FL-L589P-T7, MEF-DKO hiR2-FL-E594V-T7, MEF-DKO hiR2-FL-K596T-T7, MEF-DKO hiR2-FL-S607R-T7, MEF-DKO hiR2-FL-T612S-T7, MEF-DKO hiR2-FL-E617D-T7, MEF-DKO hiR2-FL-H620R-T7, MEF-DKO hiR2-FL-L636M-T7, MEF-DKO hiR2-FL-K638D-T7, MEF-DKO hiR2-FL-1771F-T7, MEF-DKO hiR2-FL-1825V-T7, MEF-DKO hiR2-FL-1828V-T7, MEF-DKO hiR2-FL-N829R-T7, MEF-DKO hiR2-FL-W830C-T7, MEF-DKO hiR2-FL-P831E-T7, MEF-DKO hiR2-FL-I833C-T7, MEF-DKO hiR2-FL-H835F-T7, MEF-DKO hiR2-FL-F8391-T7, MEF-DKO hiR2-FL-S843D-T7, MEF-DKO hiR2-FL-Q853A-T7, MEF-DKO hiR2-FL-V854Q-T7 and MEF-DKO hiR2-FL-R844K-T7 cells were harvested with 10 mM EDTA in PBS, washed and resuspended in FACS buffer (PBS, 3% FBS, 0.05% sodium azide), and seeded in Nunc U-bottom 96-well plates (Thermo Fisher Scientific, USA) at approximately 1×10⁵ cells per well. To pellet cells and remove supernatants, the plates were centrifuged at 1,500 rpm and 4° C. for 3 minutes. For primary staining, cells were resuspended in 100 μl per well of either FACS buffer alone (controls) or the purified antibodies 3, 5, 16, 22, 34, 42, 43, 44, 48, and 50 of the invention at 3 μg/ml in FACS buffer and incubated on ice for 1 hour. Afterwards, plates were centrifuged at 1,500 rpm and 4° C. for 3 minutes and washed twice with 200 μl per well of FACS buffer. For secondary staining, cells were spun down and resuspended in 100 μl per well of PE-conjugated goat anti-mouse IgG F(ab′)2 detection fragment (Dianova, Germany) diluted 1:100 in FACS buffer. Protected from light, the cell suspensions were incubated on ice for 1 hour. Plates were then centrifuged at 1,500 rpm and 4° C. for 3 minutes and washed three times with 200 μl per well of FACS buffer. Finally, cells were resuspended in 150 μl per well of FACS buffer and analyzed using a BD Accuri™ C6 Plus flow cytometer (Becton Dickinson, Germany).

| Binder | loss of binding vs wild type |
| --- | --- |
| antibody 43 (antibody, V domains shown, mouse IgG, kappa light chain; also called clone #43; purified antibody 43) VH: QVALKESGPGILQPSQTLSLTCSFSGFSLSTFGMGVGWIRQSSGKGLEWLANIWWDDDKYYNPALKSRLTISKDASKNQAFLKIANVDTADTATYYCARIGNYGSNYWYFDVWGTGTTVTVSS VL: QIVLTQSPAIMSASPGERVTMTCSANSRISYMYWYQQKPGSSPRLLIYDTSNLASGVPVRFSGSGSGTSYSLTISRMEAEDAATYNCQQWSSYPLTFGAGTKLELK | ≥ 30% |
| antibody 48 (antibody, V domains shown, mouse IgG, kappa light chain; also called clone #48; purified antibody 48) VH: QVQLQQSGTELVRPGTSVKVSCKASGYAFTNYLIEWVKQRPGQGLEWIGVINPGSGFTKYNEKFKGKATLTADKSSSTVYMHLSSLTSEDSAVYFCARGLYRAMDYWGQGTSVTVSS VL: DIQMTQSPASQSASLGESVTITCLASQTIATWLAWYQQKPGKSPQLLIYGATTLADGVPSRFSGGGSGTKFSFKISSLQAEDFVSYYCQQLYSTPYTFGGGTKLEIK | ≥ 30% |
| antibody 50 (antibody, V domains shown, mouse IgG, kappa light chain; also called clone #50; purified antibody 50) VH: QVQLQQSGAELVRPGASVKVSCKASGYAFSNYLIEWVKQRPGQGLEWIGVINPGSGFTKYNEKFKGKATLTADKSSSTAYMQLSSLTSEDSAVYFCARGLYRAMDYWGQGTSVTVSS VL: DIQMTQSPASQSASLGESVTITCLASQTIGTWLAWYQQKPGKSPQLLIYAAASLADGVPSRFSGGGSGTKFSFKISSLQAEDFVNYYCQQIYSTPYTFGGGTKLEIK | ≥ 30% |
